In the supplement of paper PMC12042874:
± gives the uncertainty stated by the source.

Experiment: amyloid nucleation score (Sup35N fusion, yeast selection) (log enrichment); library NNK1; higher = more nucleation; inactive = no reads after selection
Procedure, shortened: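 Three technical output replicates were used for random libraries. Psi-negative yeast expressing peptides of 20 random codons fused to Sup35N were induced with 100 μM copper sulfate for 24 hours and grown 7 days at 30°C on medium lacking adenine and uracil, and input and output plasmid inserts were Illumina-sequenced, excluding sequences with under 100 input reads. The nucleation score is the DiMSum log enrichment of output over input reads, centred on the mode score of non-aggregating sequences.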

Row | Substance | amyloid nucleation score
1 | YIMILSYAVNKSYFTRLSCN | -0.459 ± 0.67
2 | YINTGVLYFGFCGL | 7.117 ± 0.06
3 | YITAWEWVQRRVV | 2.46 ± 0.18
4 | YKATRRRQLLSPVIGEDQIG | 0.208 ± 0.32
5 | YKDIMHHVN | inactive
6 | YKGMSAHFGLILFDCCLNGS | 7.516 ± 0.067
7 | YKGYYCGSDDFPDSEKPEDG | -0.256 ± 0.32
8 | YKIVIKSGQSAN | -0.252 ± 0.28
9 | YKLKFIRGACHSS | 0.9 ± 0.63
10 | YKSLLGRAVMFKRHQPGPRA | 0.248 ± 0.39
11 | YLCQRHSFTRSRYHFLLRPV | -1.02 ± 1.2
12 | YLCRLDLTTDRKSTGLLCGC | 0.022 ± 0.34
13 | YLCRRT | 0.675 ± 0.63
14 | YLDGTNSMNAEGNLLNKAPV | 0.189 ± 0.31
15 | YLDRSRLMIKCHVHVKYVYY | 7.92 ± 0.048
16 | YLDSSFFCFLVAIKMDDARH | 6.08 ± 0.087
17 | YLERIGATYMGG | 0.601 ± 0.4
18 | YLFSFWFPRYRHVIFIGYTL | 0.531 ± 0.53
19 | YLINLRFCEREAGFNFLLGR | -1.12 ± 2.7
20 | YLIYVMPADVMAYWYCFT | -0.379 ± 0.61
21 | YLLCFWILCFTAVGIFTGFN | 0.456 ± 0.25
22 | YLLCMGMVFSIGKFSSIPCP | inactive
23 | YLQVGASADWKLTYSGSGNV | 2.72 ± 0.23

Row | Substance | amyloid nucleation score
24 | YLSMFVWTGGNM | 2.08 ± 0.31
25 | YLTWYNRYCVRYITNYHPMK | 5.96 ± 0.079
26 | YLWILDMAREDELHATCSGE | -0.558 ± 0.66
27 | YLWVIATLQFEV | -0.783 ± 0.63
28 | YMCTLRGGGSDCTWAYPKWG | 0.275 ± 0.48
29 | YMKLKRVDMSVYSCCLVFGH | -0.648 ± 0.73
30 | YMKWTNDVNDTLDILFCVYL | 3.84 ± 0.069
31 | YMLSDLITCLCVAEELFRGQ | 4.81 ± 0.098
32 | YMLSLSPPRRC | 0.25 ± 0.33
33 | YMVFVVVSI | 0.946 ± 0.24
34 | YMVSCYLAGNQDSVVCSVKW | 2.23 ± 0.18
35 | YNPIVWSTAY | inactive
36 | YNREWYYIWLLREFDVRKHS | 1.43 ± 0.53
37 | YNSFKAVNPLKVGLVYMLKL | 0.021 ± 0.55
38 | YNSRRCNIHFNFIGKC | 6.783 ± 0.054
39 | YNSWFI | 0.586 ± 0.55
40 | YNVMYTFLHFAIGTAISRTW | -0.798 ± 0.76
41 | YPCHSREMHYCREWVRDLST | -0.396 ± 0.62
42 | YPGFVCKVWIVVARKSFELE | inactive
43 | YPTYCLGCMS | 0.672 ± 0.51
44 | YPYTSLRQGRDTRNREGLQC | 0.301 ± 0.61
45 | YQCYSFRVNFGGCWLAQHLL | 4.64 ± 0.13
46 | YQVCTFSNNGIWLWRLSIPH | 1.81 ± 0.23

Row | Substance | amyloid nucleation score
47 | YREDKHCIHCWGVMGV | -2.16 ± 2.4
48 | YRESSATGMMSGSDLKRWQV | -2 ± 2.4
49 | YRGVQCFKATKNARVLLWVV | -0.051 ± 0.52
50 | YRGWVVQGIHLKFSCFAELR | 0.333 ± 0.97
51 | YRLCSMSMRCGLRSIFSNRL | 0.606 ± 0.57
52 | YRLRYI | inactive
53 | YRMIIVGLCFMVVHMAASRK | 0.514 ± 0.69
54 | YRMVCVLITVPANQIYCLLH | 0.541 ± 0.69
55 | YSAVWRSMYTQNLWVPTGMG | 1.83 ± 0.27
56 | YSDCDGTMCYVDAYMCGYMA | 3.46 ± 0.077
57 | YSHYNTIGLYILSKVSSMAV | inactive
58 | YSILMVNWMFWCFVEAWNHD | 0.623 ± 0.56
59 | YSLIVTRCC | -0.468 ± 0.41
60 | YSLLTVASREVSKQSGTSRI | 0.42 ± 1.2
61 | YSMLQFWDRAAMSV | -0.294 ± 1.5
62 | YSRNNIIHFRFISALLPEEV | 0.683 ± 0.37
63 | YSSLRGWLC | inactive
64 | YSSNWIMLIIRVMIHFFSSR | 3.46 ± 0.17
65 | YSSSPVFGCEAPGDYQLGY | 1.24 ± 0.76
66 | YSTYLSS | 1.4 ± 0.66
67 | YSYNRSIASFFYFMSYCVSL | inactive
68 | YTLILREIYWCC | -0.128 ± 0.54
69 | YTQFYVLESIYRTTLCP | 0.554 ± 0.58
